Experimental data reported in the nanobody polyreactivity screen of Harvey et al. (2022).

Experiment: yeast display, Sf9 membrane polyspecificity reagent, FACS + sequencing; frameworks hold sequencing errors
In short: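 A synthetic nanobody library was expressed on Saccharomyces cerevisiae BJ5465 by galactose induction for 36–48 hours. The library was stained for 1 hour at 4 °C with 10% biotinylated, detergent-solubilized Sf9 membrane reagent and enriched with streptavidin microbeads before FACS. Low and high (top ~1%) gates were set on anti-HA fluorescence for expression and streptavidin fluorescence for reagent binding, and each polyreactivity label reflects the gate of origin.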
For “QVQLVESGGGLVQAGGSLRLSCAASGYTFYSNAMGSYRQAPGKERELVASIRSRGRSTYYADSVKGRFTISRDNAKNTVYFQMNSLKPEDTAVYYCAALPNTPAVYAYDYWGQGTQVTVSS”, the “polyreactivity (PSR sort gate)” value was “low polyreactivity”.
In the case of “QVQLVESGGGLVQAGGSLRLSCAASGLTFVYYAMGWYRQAPGKERELVASISSTGRTYYADSVKGRFTISRDNAKNTVYLQMNSLKPEDTAVYFSAARSTYFKADYWGQGTQVTVSS”, the “polyreactivity (PSR sort gate)” value is reported as “high polyreactivity”.
In the case of “QVQLVETGGGLVQAGGSLRLSCAASGSTFGGYAMGWYRQAPGKERELVATITGGGSTNYADSVKGRFTISRDNAKNTVYLQMNSLKPEDSAVYYCAKVRTGQSRSVGYDYWGQGTQVTVSS”, the “polyreactivity (PSR sort gate)” value is reported as “low polyreactivity”.
For “QVQHVESGGCLVQAGGSLRLSCAASGSIFSYYDMGWYRHAPGKERELVAAIRGSGGITYADSVKGRFTISRDNAKNTVYLQMNSLKPEETAVYYCAADQYYRSDYYYWGQGTQVTVSS”, the “polyreactivity (PSR sort gate)” value was “low polyreactivity”.
With “QVQLVESGGGLVQAGGSLRLSCAASGSTFRDYAMGWYRQAPGKERELVAAISNSGGRTYYADSVKGRFTISRDNAKNTVYLQMNSLKPEDTAVYYCNAGRQTKWGQGTQVTVSS” the “polyreactivity (PSR sort gate)” value was “high polyreactivity”.
In the case of “QVQLVESGGGLVQAGGSLRLSCAASGFIFRKYAMGWYRQAPGKERELVAAITSSGGSTYYAGSVKGRFTISRDNAKNTVYLQMNSLKPEDTAVYYCAARLKQSGHDYWGQGTQVTVSS”, the “polyreactivity (PSR sort gate)” value is reported as “high polyreactivity”.
For “QVQLVESGGGLVQAGGSLRLSCAASGRTFYPYAMGWYRQAPGKERELVAAISSGGGSTYYADSVKGRFTISRDNAKNTVYLQMNSLKPEDTAVYYCAKRAGWAGWYYRNDYWGQGTQVTVSS”, the “polyreactivity (PSR sort gate)” value was “high polyreactivity”.
For “QVQLVESGGGLVQAGGSLRLSCAASGLIFYGYVMGWYRQAPGKERELVAGISRNSGSTYYADSVKGRFTISRDNAKITVYLQMKSLKPEDTAVYYCDALKFEAWAGEDYWGQGTQLTVSS”, the “polyreactivity (PSR sort gate)” value was “low polyreactivity”.
In the case of “QVQLVESGGGLFQAGGSLRLSCAASGRIFGPYAMGWYRQAPGKERELVATITLRGGSTYYADSVKGRFTISRDNAKNTVYLQMNSLKPEDTAVYYCNARYYSLVYRYDYWGQGTQVTVSS”, the “polyreactivity (PSR sort gate)” value is reported as “high polyreactivity”.
For “QVQLVESGGGLVQAGGSLRLSCAASGRTFTINTMGWYRQAPGKERELVAAITVSGGSTYYADSVKGRFTISRDNAKNTVYLQMNSLKPEDTAVYYCAAQRSYVNLGQTHDYWGQGTQVNVSS”, the “polyreactivity (PSR sort gate)” value was “low polyreactivity”.
In the case of “QVQLVESGGGLVQAGGSLRLSCAASGSIFRGYAMGWYRQAPGKERELVAAITSSGGSTNYADSVKGRFTISRDNAKNTVYLQMNSLKPEDTAVYYCAKAPGLWHLIQRMDYWGQVTQVTVSS”, the “polyreactivity (PSR sort gate)” value is reported as “low polyreactivity”.
With “QVQLVESGGGVVQAGGSLRLSCAASGITFTVNAIGWYRQAPGKDREFFAAITYSGGNTYYADSVKGRFTISRDNAKNTVYLQMNSLTPEDTAVYYCNSDSAVGIVGARFFYDYWGQGTQVTVSS” the “polyreactivity (PSR sort gate)” value was “low polyreactivity”.
With “QVQLVESGGGLVQAGGSLRLSCAASGSTFDIYAMGWYRQAPGKERELVAAITGSSGSTYYADSVKGRFTISRDNAKNTVYLQMNSLKPEDTAVYYCAADIVRVSTVPSLVYSYYWGQGTQVTVSS” the “polyreactivity (PSR sort gate)” value was “low polyreactivity”.
With “QVRLVESGGGLGQAGGSLRLSCAASGPIFDTNAMGWYRQAPGKERELVAAISYIGGGTYYADSVKGRFTISRDNAKNTVYLQMNSLKPEDTAVYYCAAEQIYVFFGDWMEYWGQGTQVTVSS” the “polyreactivity (PSR sort gate)” value was “low polyreactivity”.
For “QVQLVESGGGLVQAGGSLRLTCAASGFTFHNYAMGWYRQAPGKERELVAVIRWRGGSTYYADSVKGRFTISRDNAKNTVYLQMNSLKPEDTAVYYCAKRARGSYYWGYNYWGQGTQVTVSS”, the “polyreactivity (PSR sort gate)” value was “high polyreactivity”.
For “HVQLVESGGGLVQAGGSLRLTCAASGLTFSSYAMGWYRQAPGKERELVADITYRGGSTYYADSVKGRFTISRDNEKNTVYLQMNSLKPEDTAVYYCAARKKYRFDYWGQGTQVTVSS”, the “polyreactivity (PSR sort gate)” value was “high polyreactivity”.
In the case of “QVQLVESGGGLVQAGGSLRLSCAPSGITFSHYAMGWYRQAPGKERELVAGITWSGGRTYYADSVKGRFTISRDNAKNTVYLQMNSLKPEDTAVYYCAPIHRTGYDMDYWGLGTQVTVSS”, the “polyreactivity (PSR sort gate)” value is reported as “low polyreactivity”.
With “QVQLVESGGGLVQSGDSLRLSCAASGIILLSYAMGWYIHAPGKERELVAAITSGGGTNYADSVKGRFTISRDNAKNTVYLQMNSLKPEDTAVYYCAVGAYAGLYYYWGQGTQVTVSS” the “polyreactivity (PSR sort gate)” value was “low polyreactivity”.
In the case of “QDQLVESGGGLVQAGGSLRLSCAASGSIFSGYAMGWYRQPPGKERELVAAISRRGTSTYYADSVKGRFTISRDNAKNTVYLQMNSLKPEDTAFYYCAATYGGRQSYGGFDYWGQGTQVTVSS”, the “polyreactivity (PSR sort gate)” value is reported as “high polyreactivity”.
With “QVQLVESGGGLVQAGGSLRLSCAASGRTFRYYTMGWYRQAPGKEREFVAAISSTGGTYYADSVKGRFTISRDNAKNTVYLQMNRLKPEDSAVYYCAATFIQVVVNVQLYDYDYWGQGTQVTVSS” the “polyreactivity (PSR sort gate)” value was “low polyreactivity”.
For “QVQLVESGGGLDQAGGSLRLSCAASGRIFPFNAMGWYRQAAGKERELVASIRSTGGNTYYADSVKGRFTISRDNAKNTVYLQMISLIPEDSAVYYWGQGTQVTVSS”, the “polyreactivity (PSR sort gate)” value was “low polyreactivity”.
With “QVQLVESGGGLVQAGGSLRLSCAASGSTFRINAMGWYRQAPGKERELVADINSGGNTTYADSVKGRFTISRDNAKNTVYLQMNSLKPEDTAVYYCAADPVFDLWEFLLDYGYDYWGQGTQVTVSS” the “polyreactivity (PSR sort gate)” value was “low polyreactivity”.
With “QVQLVESGGGLVQAGGSLRLSCAASGFIFTDYAMGWYRQAPGKEREFVAAIDWSGGNTYYADSVKGRFTISRDNAKNTVFLQMNSLKPEDSAVYYCAASGSAREYDYWGQGTQVTVSS” the “polyreactivity (PSR sort gate)” value was “low polyreactivity”.
With “QVQLQESGGGLVQAGGSLRLSCAASGSIFVSVTMGWYRQAPGKERELGASIGRGSTTNHADSVKGRFTISRDNAKNIVYLLMNSLKPEDTAVYYCAALESYGKYHGYWGQGTLVTVSS” the “polyreactivity (PSR sort gate)” value was “low polyreactivity”.
In the case of “QVQLVESGGGLVQAGGSLRLSCAASGNIFSAYALGWYRQAPGKERELVATITSGGITYYADSVKGRFTISRDNAKNTVYLQMNSLNPEDTAVYYCNADHHGQAEYGYWGQGTQVTVSS”, the “polyreactivity (PSR sort gate)” value is reported as “low polyreactivity”.
With “QVQLVESGGGLVQAGGSLRLSCAASGSTFTGYTMGWYRQAPGKERELVAAISRRGTSTYYADSVKGRFTISRDNAKNSVYLQMNSLKPEDTAVYYCADYQGQKGYDYWGQGTQVTVSS” the “polyreactivity (PSR sort gate)” value was “high polyreactivity”.
In the case of “QVQLVKSGGGLVQAGGSLRLSCAASGSTFRYYVMGWYRQAPGKERELVATISRGGITKYADSVKGRFTSSRDNAKNTVYLQMHSLKPEDTAVYYCNTRGSRQGKFDYWGQGTQVTVSS”, the “polyreactivity (PSR sort gate)” value is reported as “high polyreactivity”.
With “QVQLVESGGGLVQAGGSLRLSCAASGRTFKLNAMGWYRQAPGKERELVAAISRNGGSTYYADSVKGRFTISRDNAKNTVYLQMTSLKPEDTAVYYCAAVRHGVSLAGYYWGQGTQVTVSS” the “polyreactivity (PSR sort gate)” value was “high polyreactivity”.
For “QVQLVESGGGFVQAGGSLGLSCAASGSTFQFYALGWYRQAPGKERELVAVITSGDDTNYADSVKGRFTISRDNATYTVYLQMNSLKPEDTAVYYCAVEYILVYTRVRSYWFDYWGQGTQVTVSS”, the “polyreactivity (PSR sort gate)” value was “low polyreactivity”.
For “QVQLVESGGGLVQAGGSLRLSCAASGSTYYAYAMGWYRQAPGKEREFVAAISSGGGSTYYADSVKGRFTISRDNAKNTVYLQMNSLKPVDTAVYYCAAVLYYYWRGYGPRSNRYDYWGQGTQVTVSS”, the “polyreactivity (PSR sort gate)” value was “high polyreactivity”.
With “QVQLVESVGGLVQAGGSLRLSSAASGRTFKGNAMGCYSQAHGKERELVAVITGSGGSTYYADSVKGRFTISRDNAKNTVYLQMNSLKPEDTAVYYCNKKLQRRSWYVYWGLGTQVTVSS” the “polyreactivity (PSR sort gate)” value was “low polyreactivity”.
With “QVQLVESGGGLVQAGGSLRLSCAASGRIISRYAMGWYRQAPGKERELVAAISRRGGSTYYADSVKGRFTISRDNAKNTVYLQLNSLKPEDTAVYYCNADTGNRGYDYWGQGTQVTVSS” the “polyreactivity (PSR sort gate)” value was “high polyreactivity”.
With “QVQLVESGGGLVQAGGSLRLSCAASGNTFYLYAMGWYRQAPGKEREFVAAITGNGGSTYYADSVKGRFTISRDNAKNTVYLQMNSLKPEDTEVYYCAATFWGYNQYDYWGQGTQVTVSS” the “polyreactivity (PSR sort gate)” value was “high polyreactivity”.
In the case of “QVQHVESGGGLVQAGGSLRLSCAASGFIFSNNAMGRYRQAPGKERELVAAITSSGGRTYYADSVKGRFTISRDNAKNTVYLQMNSLKPEDTAVYYCAAVWRTSVWTKYGYWGQGTQVTVSS”, the “polyreactivity (PSR sort gate)” value is reported as “high polyreactivity”.
With “QVQLVESGGGLLQAGGSLRLSCAASGRTFGHYAMGWYRQAPGKEREFVAAITRGGGRTYYADSVKGRFTISRDNAKNTVYLQMNSLKPEDTAVYYCARKQYWGYDYWGQGTQVTVSS” the “polyreactivity (PSR sort gate)” value was “low polyreactivity”.
In the case of “QVQLVESGGGLVQAGGSLRLSCAASGFIFNIYAMGWYRQAPGKERELVAAITFSGGSTYYADSVKGRFTISRDNAKNTVYLQMNSLKPEDTAVYYCAADYLSEYTTYDYWGQGTQVTVSS”, the “polyreactivity (PSR sort gate)” value is reported as “low polyreactivity”.
In the case of “QVQLVESGGGLVQAGGSLRLSCAASGLIFYAYVMGWYRPAPGKERELVAAITVSGGSTYYADSVKGRFTISRDNAKNTVYLQMNSLKPEDTAVYYCAADWNFYQRTFDSWGQGTQVTVSS”, the “polyreactivity (PSR sort gate)” value is reported as “low polyreactivity”.
In the case of “QVQLVESGGGLVQAGGSLRLSCAASGSTCTGYTMGWYRQAPGNERELVAAITYRGGSTYYADSVKGRFTISRDNAKNTVYLQKNSLKPEETAVYYCAAVPEYYEYSPYDYWGQGTQVTVSS”, the “polyreactivity (PSR sort gate)” value is reported as “low polyreactivity”.
With “QVQLVESGGGLVQAGGSLRLSCAASGRTFGYYAMGWYRQAPGKERELVAAISTSGGGTYYADSVKGRFTISRDNAKYTVYLQMNSLKPVDTAVYYCARDRNTRYKFDYWGQGTQVTLSS” the “polyreactivity (PSR sort gate)” value was “low polyreactivity”.
With “QVQLVESGGGLVQAGGSLRLSCAASGIILYPYAMGWYRQAPGKERELVAAISWSGGSTYYADSVKGRFTISRDNAKNTVYLQMNSLKPEDTAVYYCAARPRRRYYGYDSWGQGTQVTVSS” the “polyreactivity (PSR sort gate)” value was “high polyreactivity”.
With “QVQLVESGGGLVQAGGSLRLSCAASGRIFYHNTMGWYRQAPGKERELVAAIRSGSSSYYADSVKGRFTISRDNAKNTVYLQMNSLKPEDTAVYYCNARPWYSWGVDYDYWGQGTQVTVSS” the “polyreactivity (PSR sort gate)” value was “low polyreactivity”.
In the case of “QVQLVESGGGLVQAGGSLRLSCAASGFTFISNAMGWYRQAPGKERELVAAISSSGGRTYYADSVKGRFTISRDNAKNTVYLQMNSLKPEDTAVYYCNADRSLLYSRKIEYDYWGQGTQVSVSS”, the “polyreactivity (PSR sort gate)” value is reported as “low polyreactivity”.
In the case of “QVQHVDSGGGLVQAGGSLRLSCAASGSSFGTYDMGWYRQAPGKERELVARISGGGSTYYADSVKGRLTISRDNAKNTVYFQMNRLKPEDTAVYYCNVRKWAYWSHAFIYTYWGQGTQVTVSS”, the “polyreactivity (PSR sort gate)” value is reported as “high polyreactivity”.
